Experimental findings from publication PMC11618457 are described below.

Read-outs that look alike come from different tables or passages of the source.

Test in all cases: smFRET
Series [1] addresses T1, Zur(Zn) D49A Cy5-C113 (Escherichia coli, UniProt P0AC51 1-171, C17S;D49A;C152S;C158S).
T1 sequence: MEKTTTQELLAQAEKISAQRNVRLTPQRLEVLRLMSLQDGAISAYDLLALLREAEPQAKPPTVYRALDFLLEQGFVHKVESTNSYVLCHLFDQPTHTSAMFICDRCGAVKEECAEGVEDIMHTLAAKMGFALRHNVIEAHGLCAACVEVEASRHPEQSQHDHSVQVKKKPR

Series [2] addresses T2, Zur(Zn) Cy5-C113 (Escherichia coli, UniProt P0AC51 1-171, C17S;C152S;C158S).
T2 sequence: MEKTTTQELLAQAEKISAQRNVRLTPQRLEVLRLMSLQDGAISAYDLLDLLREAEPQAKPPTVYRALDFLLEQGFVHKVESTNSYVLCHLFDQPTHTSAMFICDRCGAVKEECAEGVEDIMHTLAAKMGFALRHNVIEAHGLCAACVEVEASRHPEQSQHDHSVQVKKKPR

Series [3] has as its target T3, Zur(Zn) Cy5-C158 (Escherichia coli, UniProt P0AC51 1-171, C17S;C113S;C152S).
T3 sequence: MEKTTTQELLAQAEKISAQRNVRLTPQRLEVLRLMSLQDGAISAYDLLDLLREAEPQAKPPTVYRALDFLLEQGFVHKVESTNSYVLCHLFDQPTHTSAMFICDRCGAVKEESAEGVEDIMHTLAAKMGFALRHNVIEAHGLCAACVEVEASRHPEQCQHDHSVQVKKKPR

For series [4], the target named is T2, Zur(Zn) Cy5-C113. The source holds these as a separate data set.
Series [5] deals with T1, Zur(Zn) D49A Cy5-C113. This is another data set of the same source.

B1: 22-bp truncated znuCB DNA (one dyad) (dsDNA)
DNA 1: AGAAGTGTGATATTATAACATT
DNA 2: AATGTTATAATATCACACTTCT
In the case of B1, the binding result in series [1], in series [2] and in series [3] was “binds” throughout.

B2: 31-bp znuCB promoter DNA (dsDNA)
DNA 1: AGAAGTGTGATATTATAACATTTCATGACTA
DNA 2: TAGTCATGAAATGTTATAATATCACACTTCT
As for B2, the binding result in series [4] and in series [5] was “binds” throughout.
